Results on one substance are retold here after publication PMC4063126.

The test concerns the target DENV1 prM protein with H98A (dengue virus 1 (DENV1), FGA/NA d1d strain). Description: co-IP.

As for “DENV1 E protein with H244A (natural protein)”, the co-IP at pH 6.0 as percent of that at pH 7.0 is 33%.
